Results from US12295997B2, “Prostate neoantigens and their uses” (Janssen Biotech, Inc., priority 2020, dated 2025).

Legend:
[1] = tested on: CD8+ T cells in PBMCs from human patients with metastatic castrate-resistant prostate cancer; assay: Patient PBMC restimulation assay (in vitro immunogenicity, TNFα/IFNγ intracellular flow cytometry); format: cell-based; conditions: 9-mer peptide; for Maximum frequency of TNFα^+IFNγ^+CD8^+ T cells (Percent): greatest frequency among all tested PBMC donors; for Immunogenic: patient PBMC restimulation
Description: PBMCs from human patients with metastatic castrate-resistant prostate cancer were thawed using media (RPMI 1640 supplemented with Glutamax, 10% HI FBS, and 1× Sodium Pyruvate). Cells were counted and plated in a 96 well round bottom microplate at a concentration of 250,000 viable cells per well. Lyophilized peptides were solubilized in 100% DMSO and diluted in media to 10 μg/mL. Neoantigen peptides were added in equal volume to PBMCs for a final concentration of 5 μg/mL. CEF Peptide Pool “Plus” (Cellular Technologies, Ltd.) was utilized as a positive control and DMSO at the same final concentration as the experimental peptides was utilized as a negative control. Human IL-15 (Peprotech) was added to all wells at final concentration of 10 ng/mL.
Plates were incubated at 37° C. (5% CO2) for a total of 13 days. Media was refreshed every 2 days with IL-15 (10 ng/mL final concentration) and IL-2 (R&D systems, 10 IU/mL final concentration). On day 12, PBMCs were re-stimulated with identical experimental peptides or controls, at same concentration as peptide stimulation on Day 1. After 1-hour incubation, protein Inhibitor Cocktail (eBioscience) was added to every well and plate was incubated overnight.
On day 13, cells were stained for intracellular flow cytometry analysis. The cells were washed with PBS and stained with Live/Dead Fixable Aqua Dead Cell stain (Thermo-Fisher). Following the live/dead stain, cells were blocked using Biotin-Free Fc Receptor Blocker (Accurate Chemical & Scientific Corp). Extracellular cellular flow panel ([…] per well in 50 μL) consisted of CD3 PerCP-Cy5.5 (Biolegend), CD4 BV421 (Biolegend), and CD8 APC-Cy7 (Biolegend). After extracellular staining, cells were fixed using Foxp3/fTranscription Factor Staining Buffer Set (eBioscience) and stained for intracellular proteins (1:50 dilution) using TNFα FITC (R&D Systems) and IFNγ BV785 (Biolegend). Cells were washed and resuspended in stain buffer and analyzed using a BD Celesta flow cytometer.
Flow cytometry cell staining analysis was completed using FlowJo v10. Cells were gated on live, singlet, CD3+ cells. The CD8+ T cells were analyzed for TNFα/IFNγ expression and the frequency of double positive TNFα/IFNγ CD8+ T cells was recorded. Responses were assessed to be positive when the frequency of double positive TNFα/IFNγ CD8+ T cells due to stimulation with an experimental peptide was increased greater than or equal to 2-fold over the DMSO only negative control for that patient. Peptides were analyzed in 1 to 7 patient samples.
The 9 mer fragments shown in Table 13 were assessed for their ability to activate T cells using the Patient PBMC restimulation assay described in Example 1 using TNFα and IFNγ production by CD8^+ T cells as a readout. Self-antigens shown in Table 15 were also used in the assays. […] PBMCs from ten patients were evaluated.

HLA-A*01:01 = HLA-A*01:01 (Homo sapiens, UniProt P04439, A114D/A174V/A182V/D101N/D185E/E176A/E190D/L180R/Q94H/R68K/S129P/T187R/V100A/V91M/W191G); assay: In vitro binding of neoantigens to class I MHC (UV peptide exchange, HLA class I ELISA); conditions: 100% = same binding as positive control peptide
Description: (§1) The 9 mer peptides identified by bioinformatics analysis were analyzed for their binding propensities to 6 common HLA class I alleles (HLA-A*01:01, A*02:01, A*03:01, A*24:02, B*07:02, B*08:01). The principle of the method is briefly described below and consists of two parts, one involving exchange of peptide with a positive control induced by Ultraviolet (UV) radiation, and the second is an enzyme immunoassay to detect stable HLA-peptide and empty HLA complexes.
(§2) HLA-bound peptides are critical for the stability of the HLA complex. A conditional HLA class I complex was stabilized by an UV-labile peptide utilizing a different peptide (Pos) for each HLA (Pos: HLA-A*01:01: […](SEQ ID NO: 409), HLA-A*02:01: […] (SEQ ID NO: 410), HLA-A*03:01: […] (SEQ ID NO: 411), HLA-A*24:02: […] (SEQ ID NO: 412), HLA-B*07:02: […] (SEQ ID NO: 413), HLA-B*08:01: […] (SEQ ID NO: 414), which could be cleaved by UV irradiation when bound to the HLA molecule. Upon cleavage, the resulting peptide fragments dissociated from the HLA class I complex since their length was insufficient to bind stably to HLA. Under the conditions in which peptide cleavage was performed (neutral pH, on melting ice), the peptide-free HLA complex remained stable.
(§3) The exchange efficiency between the peptide of interest and Pos was analyzed using an HLA class I ELISA. The combined technologies allowed the identification of ligands for an HLA molecule of interest which are potentially immunogenic.
(§4) Exchange control peptide Pos was a high affinity binder to the relevant HLA class I allele while exchange control peptide Neg was a non-binder. The UV control represented UV-irradiation of conditional HLA class I complex in the absence of a rescue peptide.
(§5) The HLA class I ELISA is an enzyme immunoassay based on the detection of beta2-microglobulin (B2M) of (peptide-stabilized) HLA class I complexes. To this end streptavidin was bound onto polystyrene microtiter wells. After washing and blocking, HLA complex present in exchange reaction mixtures or ELISA controls was captured by the streptavidin on the microtiter plate via its biotinylated heavy chain. Non-bound material was removed by washing. Subsequently, horseradish peroxidase (HRP)-conjugated antibody to human B2M was added. The HRP-conjugated antibody binds only to an intact HLA complex present in the microtiter well because unsuccessful peptide exchange results in disintegration of the original UV-sensitive HLA complex upon UV illumination. In the latter case B2M was removed during the washing step. After removal of non-bound HRP conjugate by washing, a substrate solution was added to the wells. A coloured product formed in proportion to the amount of intact HLA complex present in the samples. After the reaction was terminated by the addition of a stop solution, absorbance was measured in a microtiter plate reader. The absorbance was normalized to the absorbance of an exchange control peptide (represents 100%). Suboptimal HLA binding of peptides with a moderate to low affinity for HLA class I molecules can also be detected by this ELISA technique (Rodenko, B et al. (2006) Nature Protocols 1: 1120-32).
(§6) Peptides that had 10% or greater exchange efficiency in one of the 6 HLA alleles were considered for further immunogenicity testing and analysis.
(§7) Binding of select neoepitopes to HLA-A*01:01, HLA-A*02:01, HLA-A*03:01, HLAA*24:02, HLAAB*07:02 and HLA-B*08:01 was evaluated using the assay described in Example 1. […] As a criterion for further evaluation, peptides with an exchange rate of at least 10% with the corresponding Pos peptide for at least one of the 6 HLA alleles that we considered for further evaluation. The exchange rates with the allele specific Pos peptides, of the 24 neoantigens so identified are summarized below in Table 17. Higher percentages correspond to stronger binding to the HLA allele. […]

HLA-A*02:01 = HLA-A*02:01 (Homo sapiens, UniProt P04439, D140Y/D185E/D98H/E176V/E277Q/G131W/G231S/I119V/I121R/I166T/I218V/L300P/L318F/N151K/N90K/P208A/P217A/Q86G/Q94H/R138H/R169H/T345S); assay: as above; conditions: 100% = same binding as positive control peptide
Description: as §1, §2, §3, §4, §5, §6, §7

HLA-A*24:02 = HLA-A*24:02 (Homo sapiens, UniProt P04439, D101N/D140Y/D185E/E176V/E190D/F33S/G103R/G107R/I119L/I121M/I306V/K335N/L105A/L180Q/L300P/N151K/N90K/Q86E/Q94H/R106L/R138H/R89G/T104I/T345S/V100E/W191G/Y123F); assay: as above; conditions: 100% = same binding as positive control peptide
Description: as §1, §2, §3, §4, §5, §6, §7

HLA-B*07:02 = HLA-B*07:02 (Homo sapiens, UniProt P01889); assay: as above; conditions: 100% = same binding as positive control peptide
Description: as §1, §2, §3, §4, §5, §6, §7

HLA-A*03:01 = HLA-A*03:01 (Homo sapiens, UniProt P04439); assay: as above; conditions: 100% = same binding as positive control peptide
Description: as §1, §2, §3, §4, §5, §6
Binding of select neoepitopes to HLA-A*01:01, HLA-A*02:01, HLA-A*03:01, HLAA*24:02, HLAAB*07:02 and HLA-B*08:01 was evaluated using the assay described in Example 1. […] As a criterion for further evaluation, peptides with an exchange rate of at least 10% with the corresponding Pos peptide for at least one of the 6 HLA alleles that we considered for further evaluation. The exchange rates with the allele specific Pos peptides, of the 24 neoantigens so identified are summarized below in Table 17. Higher percentages correspond to stronger binding to the HLA allele.

HLA-B*08:01 = HLA-B*08:01 (Homo sapiens, UniProt P01889, A93T/A95T/D138N/E176V/E187T/K202T/Q94N/R180D/S35A/V36M/Y33D/Y91F); assay: as above
Description: as §1, §2, §3, §4, §5, §6, §7

## P48 (VQPIARELYQFTFDLLI; listed as Homo sapiens) [Peptide P48]
[1]
  Maximum frequency of TNFα^+IFNγ^+CD8^+ T cells (Percent): 0.220%
  Immunogenic: Yes
HLA-A*01:01
  Exchange rate with allele specific Pos peptide, HLA-A*01:01: 4.3%
HLA-A*02:01
  Exchange rate with allele specific Pos peptide, HLA-A*02:01: 99.3%
HLA-A*24:02
  Exchange rate with allele specific Pos peptide, HLA-A*24:02: 0.1%
HLA-B*07:02
  Exchange rate with allele specific Pos peptide, HLA-B*07:02: 12.8%
HLA-A*03:01
  Exchange rate with allele specific Pos peptide, HLA-A*03:01: 4.4%

## 8 (QLIAMDSAI; listed as Homo sapiens) [Peptide 8]
HLA-B*08:01; Binding to HLA-B*08:01, UV peptide exchange, replicate I, Pos = 100
  Exch I (%): 8.0%
HLA-B*08:01; Binding to HLA-B*08:01, UV peptide exchange, replicate II, Pos = 100
  Exch II (%): 7.8%
HLA-B*08:01; Binding to HLA-B*08:01, average of Exch I and Exch II
  Average %: 7.9%

## P17 (GVPGDSTRRAVRRMNTF; listed as Homo sapiens) [Peptide P17]
[1]
  Maximum frequency of TNFα^+IFNγ^+CD8^+ T cells (Percent): 0.130%
  Immunogenic: Yes
HLA-A*01:01
  Exchange rate with allele specific Pos peptide, HLA-A*01:01: 4.9%
HLA-A*24:02
  Exchange rate with allele specific Pos peptide, HLA-A*24:02: 0.1%
HLA-B*07:02
  Exchange rate with allele specific Pos peptide, HLA-B*07:02: 38.7%
HLA-B*08:01; 100% = same binding as positive control peptide
  Exchange rate with allele specific Pos peptide, HLA-B*08:01: 9%
HLA-A*03:01
  Exchange rate with allele specific Pos peptide, HLA-A*03:01: 3.8%

## P76 (YCMAAPMGL) [Peptide P76]
[1]
  Maximum frequency of TNFα^+IFNγ^+CD8^+ T cells (Percent): 0.170%
  Immunogenic: Yes
HLA-A*01:01
  Exchange rate with allele specific Pos peptide, HLA-A*01:01: 0.1%
HLA-A*02:01
  Exchange rate with allele specific Pos peptide, HLA-A*02:01: 85.9%
HLA-A*24:02
  Exchange rate with allele specific Pos peptide, HLA-A*24:02: −0.5%
HLA-B*07:02
  Exchange rate with allele specific Pos peptide, HLA-B*07:02: 91.5%
HLA-A*03:01
  Exchange rate with allele specific Pos peptide, HLA-A*03:01: 6%
